Consider 1 molecule from article PMC5286520 (2017).

In general, Ki refers to a dissociation constant, usually derived from enzyme kinetics or from competition with a known ligand. A low value points to higher affinity.

For test [1], the target named is T1, V1aR (Homo sapiens, UniProt P37288). As to the kind of experiment: radioligand displacement. For orientation: In a radioligand displacement assay an active substance lowers the binding of a labelled ligand.
Test [2] concerns the target T2, OTR (Homo sapiens, UniProt P30559).
T2 chain: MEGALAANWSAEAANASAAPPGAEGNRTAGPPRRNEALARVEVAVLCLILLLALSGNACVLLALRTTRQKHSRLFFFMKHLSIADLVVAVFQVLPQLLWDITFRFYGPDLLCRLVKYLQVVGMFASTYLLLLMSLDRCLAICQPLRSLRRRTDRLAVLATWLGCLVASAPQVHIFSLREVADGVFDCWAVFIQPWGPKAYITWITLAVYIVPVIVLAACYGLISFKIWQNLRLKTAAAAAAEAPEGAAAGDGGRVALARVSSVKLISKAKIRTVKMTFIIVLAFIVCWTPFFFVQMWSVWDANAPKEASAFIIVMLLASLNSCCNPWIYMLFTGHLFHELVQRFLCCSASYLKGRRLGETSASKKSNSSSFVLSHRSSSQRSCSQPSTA
As to the kind of experiment: radioligand displacement.

Test [3] deals with T3, V1bR (Homo sapiens, UniProt P47901).
T3 chain: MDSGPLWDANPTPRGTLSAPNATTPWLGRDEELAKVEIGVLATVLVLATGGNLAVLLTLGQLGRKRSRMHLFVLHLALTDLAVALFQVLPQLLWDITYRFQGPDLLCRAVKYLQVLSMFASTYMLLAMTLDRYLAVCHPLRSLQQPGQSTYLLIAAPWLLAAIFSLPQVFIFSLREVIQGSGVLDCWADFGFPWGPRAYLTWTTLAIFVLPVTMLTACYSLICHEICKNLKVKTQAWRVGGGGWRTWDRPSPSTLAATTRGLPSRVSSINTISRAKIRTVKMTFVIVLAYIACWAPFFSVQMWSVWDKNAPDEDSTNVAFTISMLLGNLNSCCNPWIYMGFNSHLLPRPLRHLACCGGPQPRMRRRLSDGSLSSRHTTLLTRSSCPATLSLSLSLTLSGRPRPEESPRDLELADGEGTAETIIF
Briefly: radioligand displacement.

Test [4] deals with T1, V1aR. Briefly: Schild analysis (IP1 assay).

Bridge positions count the residues as written; N and C are the ends. Square brackets hold non-standard residues; d marks the D form. Ends that are not written are not given here.

T1 sequence (P37288 whole entry): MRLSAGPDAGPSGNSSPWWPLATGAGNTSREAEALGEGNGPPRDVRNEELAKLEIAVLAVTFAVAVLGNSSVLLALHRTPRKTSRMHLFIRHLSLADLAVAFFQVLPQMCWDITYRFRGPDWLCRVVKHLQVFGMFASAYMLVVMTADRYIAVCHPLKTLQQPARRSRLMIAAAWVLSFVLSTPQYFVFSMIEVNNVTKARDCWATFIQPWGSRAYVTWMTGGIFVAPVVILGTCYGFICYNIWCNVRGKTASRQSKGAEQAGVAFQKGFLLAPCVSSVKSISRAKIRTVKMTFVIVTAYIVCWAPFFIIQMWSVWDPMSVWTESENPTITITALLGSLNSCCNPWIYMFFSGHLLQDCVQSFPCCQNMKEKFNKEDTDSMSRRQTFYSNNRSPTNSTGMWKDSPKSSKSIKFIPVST

For CLITNCP[dR]G-NH2 (disulfide 1-6 (inferred)) [[D-Arg8]-inotocin], the Ki in test [1] is 1.3 nM; in test [2], greater than 4000 nM; in test [3], greater than 100000 nM; in test [4], roughly 16 nM.
